Results on one molecule are retold here after US6495673 (MEDICAL RESEARCH COUNCIL, dated 2002).

Experiment [1] has as its target Calmodulin-tagged phage DN323 (calmodulin displayed as a gene III fusion on filamentous phage, from phagemid … (filamentous phage, UniProt P0DP23 2-149)). The experiment in a line: competition ELISA over time with 1000-fold excess of unlabeled peptide.
Experiment [2] has as its target T1, GST-phage fusion FV7 (glutathione S-transferase displayed on phage without calmodulin, from vector pFV7) (S. japonica; filamentous phage, UniProt P08515 1-218 = GST; P69168 19-424).
T1 construct: Any vector tags of pCANTAB6 are not described; also called non-specific phage; E-fd (GST)
The experiment in a line: phage ELISA on streptavidin plate with biotin-peptide.

No end group written: not given here. *: point of attachment. Biotin = O=C1N[C@H]2[C@H](CS[C@H]2CCCCC(=O)*)N1

T1 sequence (P08515 1-218, tags or fused parts left off): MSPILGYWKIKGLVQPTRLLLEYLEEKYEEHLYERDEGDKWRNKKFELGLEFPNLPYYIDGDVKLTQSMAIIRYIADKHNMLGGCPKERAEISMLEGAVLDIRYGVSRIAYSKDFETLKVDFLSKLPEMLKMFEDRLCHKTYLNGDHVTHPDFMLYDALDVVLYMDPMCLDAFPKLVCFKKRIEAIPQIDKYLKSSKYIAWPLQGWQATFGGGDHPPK

For the molecule Biotin-CAAARWKKAFIAVSAANRFKKIS [biotin-labeled CAAARWKKAFIAVSAANRFKKIS peptide (SEQ ID NO: 15)], in experiment [1], the koff was less than 0.1 s⁻¹. For the same molecule, the binding result in experiment [2] is given as “no binding”.
